In PMC3307893 one finds percent of the deubiquitinated Cdc20 bound to the APC data, which are given here for one substance.

For this test, the target named is Anaphase-Promoting Complex/Cyclosome (APC), Xenopus, immunoprecipitated on Cdc27 antibody beads (Xenopus (endogenous in egg extract)). Briefly: pull-down.

The substance “double HA-tagged human Cdc20, wild type (from UniProt Q12834 1-499) (natural protein)” had a percent of the deubiquitinated Cdc20 bound to the APC of 47%.
